According to paper PMC8080530, “Glucocorticoid receptor Thr524 phosphorylation by MINK1 induces interactions with 14-3-3 protein regulators” (The Journal of Biological Chemistry, 2021):
Where two headings read alike, the source gives them in different places. Non-standard residues stand in square brackets, D forms with d. Residues, ends and D or L forms follow the SMILES beside them. Primed or numbered codes have the meaning given here. No end group written: not given here. *: point of attachment. FITC′ = fluorescein isothiocyanate tag added on resin (method C); FITC = O=C1OC2(c3ccc(O)cc3Oc3cc(O)ccc32)c2ccc(NC(=S)*)cc21; pT = C[C@@H](OP(=O)(O)O)[C@H](N)C(=O)O; pS = N[C@@H](COP(=O)(O)O)C(=O)O

Key:
14-3-3ζ = target: T1, 14-3-3ζ (Homo sapiens, UniProt P63104); assay: FP assay with GR phosphorylated peptides and 14-3-3ζ; type: binding
T1 construct: Full-length expression and purification of 14-3-3; made in house; host or cells: E. coli BL21 (DE3)STAR
T1 sequence (P63104 1-245): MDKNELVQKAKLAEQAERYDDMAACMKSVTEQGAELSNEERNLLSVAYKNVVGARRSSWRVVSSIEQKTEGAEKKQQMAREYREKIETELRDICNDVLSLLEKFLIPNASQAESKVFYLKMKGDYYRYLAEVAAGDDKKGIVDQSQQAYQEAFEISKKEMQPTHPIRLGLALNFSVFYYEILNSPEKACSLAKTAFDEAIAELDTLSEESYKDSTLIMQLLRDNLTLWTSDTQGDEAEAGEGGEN
How it was run: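 Fluorescence polarization (ex 485/em 520 nm) was read in triplicate after 30-min RT incubation. Binding data were fitted to a standard Hill equation and expressed in mP units. The dynamic range (ΔmP) is the difference between bound and free peptide signals.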

[1] = target: T2, human 14-3-3ζ, full length, 6His-Linker-h14-3-3 (human, UniProt P63104 1-245); assay: FP
T2 chain: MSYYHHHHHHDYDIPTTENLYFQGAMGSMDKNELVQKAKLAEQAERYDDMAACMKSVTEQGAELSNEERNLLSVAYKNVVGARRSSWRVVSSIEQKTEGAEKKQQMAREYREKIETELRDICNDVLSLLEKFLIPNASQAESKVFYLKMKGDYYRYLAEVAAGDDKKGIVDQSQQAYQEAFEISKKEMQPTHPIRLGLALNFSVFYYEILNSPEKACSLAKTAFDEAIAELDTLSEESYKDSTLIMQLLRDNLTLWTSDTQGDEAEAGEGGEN

[2] = target: T3, human 14-3-3σ, full length, 6His-Linker-h14-3-3 (human, UniProt P31947 1-248); assay: fluorescence polarisation; FITC-labelled peptide at 60 nM (monophosphorylated) or 10 nM (doubly phosphorylated) titrated with 14-3-3ζ or 14-3-3σ in dilution series from 300 μM or 150 μM; 30 min at RT; 384-well plate; Hill fit; triplicates; settings: both partners purified
T3 construct: 14-3-3 protein sigma, human, cloned in pProEx Htb; also called σ isoform of human 14-3-3; source: E. coli BL21 (DE3)STAR, purified (Ni-NTA, SEC); not shown: His6 with linker [residues removed], N-terminal, kept
T3 sequence (looked up): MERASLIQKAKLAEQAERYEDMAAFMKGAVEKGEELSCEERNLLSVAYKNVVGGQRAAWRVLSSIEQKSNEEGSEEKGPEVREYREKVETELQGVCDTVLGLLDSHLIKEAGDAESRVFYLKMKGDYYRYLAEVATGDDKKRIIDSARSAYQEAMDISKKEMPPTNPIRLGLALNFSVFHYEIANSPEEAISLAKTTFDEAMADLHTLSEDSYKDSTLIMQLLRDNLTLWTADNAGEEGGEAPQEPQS

[3] = target: T2, human 14-3-3ζ, full length, …; assay: SPR
[4] = FITC-labeled peptide 60 nM (monophosphorylated) or 10 nM (doubly phosphorylated) titrated with 14-3-3ζ, 30 min RT, Hill fit, triplicates, read-out: Kd with 14-3-3ζ by FP

Molecule: CC(C)C[C@H](N)C(=O)N[C@@H](CCC(=O)O)C(=O)N[C@@H](Cc1ccccc1)C(=O)N[C@@H](CO)C(=O)N[C@@H](CO)C(=O)NCC(=O)N[C@@H](COP(=O)(O)O)C(=O)N1CCC[C@H]1C(=O)NCC(=O)N[C@@H](CCCCN)C(=O)N[C@@H](CCC(=O)O)C(=O)N[C@H](C(=O)N[C@@H](CC(N)=O)C(=O)O)[C@@H](C)O [GR_pS203] (H-LEFSSG[pS]PGKETN-OH; N-terminus assumed)
- Kd (14-3-3ζ; [4]): > 150000 nM

Molecule: CC(C)C[C@H](NC(=O)[C@H](CC(=O)O)NC(=O)[C@H](CO)NC(=O)[C@H](CCCNC(=N)N)NC(=O)[C@H](Cc1c[nH]c2ccccc12)NC(=O)[C@@H]1CCCN1C(=O)[C@H](COP(=O)(O)O)NC(=O)[C@H](CCC(=O)O)NC(=O)[C@H](CC(N)=O)NC(=O)[C@@H](NC(=O)[C@H](CCC(=O)O)NC(=O)[C@H](CCCCN)NC(=O)CN)[C@@H](C)O)C(=O)O [GR_pS211] (H-GKETNE[pS]PWRSDL-OH; N-terminus assumed)
- Kd (14-3-3ζ; [4]): > 150000 nM

Molecule: CC(C)C[C@H](NC(=O)[C@H](CS)NC(=O)[C@H](CC(N)=O)NC(=O)[C@H](CCC(=O)O)NC(=O)[C@@H](N)CC(=O)O)C(=O)N[C@@H](CC(C)C)C(=O)N[C@@H](COP(=O)(O)O)C(=O)N1CCC[C@H]1C(=O)N[C@@H](CC(C)C)C(=O)N[C@@H](C)C(=O)NCC(=O)N[C@@H](CCC(=O)O)C(=O)N[C@@H](CC(=O)O)C(=O)O [GR_pS226] (H-DENCLL[pS]PLAGED-OH; N-terminus assumed)
- Kd (14-3-3ζ; [4]): > 150000 nM

Molecule: CC(C)C[C@H](NC(=O)[C@H](CC(C)C)NC(=O)[C@H](Cc1ccccc1)NC(=O)[C@H](COP(=O)(O)O)NC(=O)[C@H](CC(=O)O)NC(=O)[C@H](CC(=O)O)NC(=O)[C@H](CCC(=O)O)NC(=O)CNC(=O)[C@H](C)NC(=O)[C@@H](N)CC(C)C)C(=O)N[C@@H](CCC(=O)O)C(=O)NCC(=O)N[C@@H](CC(N)=O)C(=O)O [GR_pS234] (H-LAGEDD[pS]FLLEGN-OH; N-terminus assumed)
- Kd (14-3-3ζ; [4]): > 150000 nM

Molecule: CC(C)C[C@H](NC(=O)[C@@H](NC(=O)[C@@H](NC(=O)[C@H](CC(N)=O)NC(=O)[C@H](CO)NC(=O)[C@@H]1CCCN1C(=O)[C@H](COP(=O)(O)O)NC(=O)[C@H](CO)NC(=O)[C@H](CC(C)C)NC(=O)[C@@H](NC(=O)[C@H](CC(C)C)NC(=O)[C@H](CC(=O)O)NC(=O)CN)C(C)C)C(C)C)[C@@H](C)O)C(=O)O [GR_pS267] (H-GDLVLS[pS]PSNVTL-OH; N-terminus assumed)
- Kd (14-3-3ζ; [4]): > 150000 nM

Molecule: CSCC[C@H](N)C(=O)N[C@@H](CCCNC(=N)N)C(=O)N1CCC[C@H]1C(=O)N[C@@H](CC(=O)O)C(=O)N[C@H](C(=O)N[C@@H](CO)C(=O)N[C@@H](COP(=O)(O)O)C(=O)N1CCC[C@H]1C(=O)N1CCC[C@H]1C(=O)N[C@@H](CO)C(=O)N[C@@H](CO)C(=O)N[C@@H](CO)C(=O)N[C@@H](CO)C(=O)O)C(C)C [GR_pS404] (H-MRPDVS[pS]PPSSSS-OH; N-terminus assumed)
- Kd (14-3-3ζ; [4]): > 150000 nM

Molecule: CC[C@H](C)[C@H](NC(=O)[C@@H](NC(=O)[C@@H](N)CCCCN)[C@@H](C)O)C(=O)N[C@H](C(=O)N1CCC[C@H]1C(=O)N[C@@H](C)C(=O)N[C@@H](COP(=O)(O)O)C(=O)N[C@@H](CC(C)C)C(=O)N1CCC[C@H]1C(=O)N[C@@H](CCC(N)=O)C(=O)N[C@@H](CC(C)C)C(=O)N[C@H](C(=O)N1CCC[C@H]1C(=O)NCC(=O)NCC(=O)NCC(=O)NCC(=O)NCC(=O)N[C@@H](CCCNC(=N)N)C(=O)N[C@@H](CO)C(=O)N[C@@H](Cc1ccc(O)cc1)C(=O)N[C@@H](CCCNC(=N)N)C(=O)N[C@@H](CCC(N)=O)C(=O)N[C@@H](CO)C(=O)N[C@@H](COP(=O)(O)O)C(=O)N[C@@H](C)C(=O)N[C@@H](CC(N)=O)C(=O)N[C@@H](CC(C)C)C(=O)N[C@@H](CC(C)C)C(=O)N[C@@H](CS)C(=O)N[C@@H](Cc1ccccc1)C(=O)O)[C@@H](C)O)C(C)C [GR_pS524-pS617] (H-KTIVPA[pS]LPQLTPGGGGGRSYRQS[pS]ANLLCF-OH)
- Kd (14-3-3ζ; FP, doubly phosphorylated 31-mer peptides, triplicates, read-out: Kd with 14-3-3ζ (values in nM)): 140 nM

Molecule: CC(C)C[C@H](NC(=O)[C@H](CO)NC(=O)[C@H](CCC(=O)O)NC(=O)[C@H](CCCCN)NC(=O)[C@H](CO)NC(=O)[C@@H](N)CC(=O)O)C(=O)N[C@H](C(=O)N1CCC[C@H]1C(=O)NCC(=O)N[C@@H](CCCNC(=N)N)C(=O)N[C@@H](CCC(=O)O)C(=O)N[C@@H](CCC(=O)O)C(=O)N[C@@H](CC(N)=O)C(=O)O)[C@@H](C)OP(=O)(O)O [GR_pT8] (H-DSKESL[pT]PGREEN-OH; N-terminus assumed)
- Kd (14-3-3ζ; [4]): > 150000 nM

Molecule: CC[C@H](C)[C@H](NC(=O)[C@@H](NC(=O)[C@@H](N)CCCCN)[C@@H](C)O)C(=O)N[C@H](C(=O)N1CCC[C@H]1C(=O)N[C@@H](C)C(=O)N[C@H](C(=O)N[C@@H](CC(C)C)C(=O)N1CCC[C@H]1C(=O)N[C@@H](CCC(N)=O)C(=O)N[C@@H](CC(C)C)C(=O)N[C@H](C(=O)N1CCC[C@H]1C(=O)NCC(=O)NCC(=O)NCC(=O)NCC(=O)NCC(=O)N[C@@H](CCCNC(=N)N)C(=O)N[C@@H](CO)C(=O)N[C@@H](Cc1ccc(O)cc1)C(=O)N[C@@H](CCCNC(=N)N)C(=O)N[C@@H](CCC(N)=O)C(=O)N[C@@H](CO)C(=O)N[C@@H](C)C(=O)N[C@@H](C)C(=O)N[C@@H](CC(N)=O)C(=O)N[C@@H](CC(C)C)C(=O)N[C@@H](CC(C)C)C(=O)N[C@@H](CS)C(=O)N[C@@H](Cc1ccccc1)C(=O)O)[C@@H](C)O)[C@@H](C)OP(=O)(O)O)C(C)C [GR_pT524-S617A] (H-KTIVPA[pT]LPQLTPGGGGGRSYRQSAANLLCF-OH)
- Kd (14-3-3ζ; read-out: PKd with 14-3-3ζ (converted)): 1260 nM

Molecule: CC[C@H](C)[C@H](NC(=O)[C@H](CCCNC(=N)N)NC(=O)[C@H](Cc1c[nH]c2ccccc12)NC(=O)[C@@H](N)[C@@H](C)O)C(=O)N[C@@H](CCSC)C(=O)N[C@H](C(=O)N[C@H](C(=O)N[C@@H](CC(C)C)C(=O)N[C@@H](CC(N)=O)C(=O)N[C@@H](CCSC)C(=O)N[C@@H](CC(C)C)C(=O)NCC(=O)NCC(=O)O)[C@@H](C)OP(=O)(O)O)[C@@H](C)O [GR_pT562]
- Kd (14-3-3ζ; method not given, read-out: Kd with 14-3-3ζ): 200000 nM

B1: GR pS83, FITC-labelled 13-mer phosphopeptide (peptide, UniProt P04150 77-89, looked up)
peptide: {FITC}-DLSKAV[pS]LSMGLY
notes: glucocorticoid receptor (GR), human; 13-mer centred on S83; source: synthetic peptide
- Kd [1]: 72 µM
- binding result [2]: binds

Molecule: {FITC}-KTIVPATLPQLTP (also: phosphothreonine at T524, place in chain not given here)
- Kd [1]: 38 µM

B2: GR_pT524, FITC-labelled 13-mer phosphopeptide (peptide, UniProt P04150 518-530, looked up)
peptide: {FITC′}-KTIVPA[pT]LPQLTP
modifications: also: phosphothreonine at 524 (T2, T7 or T12)
notes: glucocorticoid receptor (GR), human; 13-mer centred on T524; source: synthetic peptide
- binding result [2]: binds

B3: GR_pS617, FITC-labelled 13-mer phosphopeptide (peptide, UniProt P04150 611-623, looked up)
peptide: {FITC′}-RSYRQS[pS]ANLLCF
modifications: also: phosphoserine at 617 (S6 or S7)
notes: glucocorticoid receptor (GR), human; 13-mer centred on S617; source: synthetic peptide
- Kd [1]: 25 µM
- binding result [2]: binds

Molecule: {FITC}-INEQRM[pT]LPCMYD (also: phosphothreonine at T635, place in chain not given here)
- Kd [1]: 55 µM

Molecule: RSYRQS[pS]ANLLCF (not fully specified (N-terminus)) [GR_pS617, 13-mer phosphopeptide used for SPR and crystallography]
- Kd [3]: 27 µM

B4: GR pT635, FITC-labelled 13-mer phosphopeptide (peptide, UniProt P04150 629-641, looked up)
peptide: {FITC}-INEQRM[pT]LPCMYD
notes: glucocorticoid receptor (GR), human; 13-mer centred on T635; source: synthetic peptide
- binding result [2]: binds

B5: GR pT561, FITC-labelled 13-mer phosphopeptide (peptide, UniProt P04150 555-567, looked up)
peptide: {FITC}-STWRIM[pT]TLNMLG
notes: glucocorticoid receptor (GR), human; 13-mer centred on T561; source: synthetic peptide
- binding result [2]: binds

B6: GR_pS134, FITC-labelled 13-mer phosphopeptide (peptide, UniProt P04150 128-140, looked up)
peptide: {FITC′}-NLNRST[pS]VPENPK
modifications: also: phosphoserine at 134 (S5 or S7)
notes: glucocorticoid receptor (GR), human; 13-mer centred on S134; also called 13-mer peptide centered on GR S134; source: synthetic peptide
- Kd [2]: 110 µM
